Source: publication doi:10.1101/2020.08.02.233007 (bioRxiv, 2020)
Numbering of substitutions follows the chain as printed. Names and notes keep the numbering of the source. Values belong to the binder of their own block, whether it stands above or below them.

Tests used:
[1] = molecular target: T1, recombinant full-length UVR8 (wild type) from Sf9 cells (Arabidopsis, UniProt Q9FN03 1-440); assay: grating-coupled interferometry
T1 sequence: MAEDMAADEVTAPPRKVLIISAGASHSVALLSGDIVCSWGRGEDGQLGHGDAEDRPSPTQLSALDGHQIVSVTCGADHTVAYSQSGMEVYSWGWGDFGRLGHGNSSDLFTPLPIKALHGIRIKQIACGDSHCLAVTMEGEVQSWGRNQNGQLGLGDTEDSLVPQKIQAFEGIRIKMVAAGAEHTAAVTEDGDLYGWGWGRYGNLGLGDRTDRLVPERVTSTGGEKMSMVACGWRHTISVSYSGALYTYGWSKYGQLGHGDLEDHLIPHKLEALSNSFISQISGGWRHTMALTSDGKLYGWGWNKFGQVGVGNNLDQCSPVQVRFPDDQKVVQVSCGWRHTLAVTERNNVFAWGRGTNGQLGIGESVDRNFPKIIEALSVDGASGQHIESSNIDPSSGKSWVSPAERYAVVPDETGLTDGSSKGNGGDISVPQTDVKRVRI

[2] = molecular target: T2, recombinant full-length UVR8^W285A from Sf9 cells (Arabidopsis, UniProt Q9FN03 1-440, W285A); assay: grating-coupled interferometry
T2 sequence: T1 sequence with W285A

[3] = molecular target: T3, recombinant full-length UVR8^W285A from Sf9 cells (Arabidopsis), Q9FN03; assay: SEC; conditions: remark: other sources report otherwise
T3 chain: T1 sequence with W285A

cross-linking = molecular target: the molecule itself; assay: cross-linking
[4] = molecular target: T4, UVR8^W285A overexpressed in uvr8-7/Pro35S:UVR8^W285A seedlings (Arabidopsis thaliana), Q9FN03; assay: cross-linking; conditions: remark: other sources report otherwise
T4 chain: T1 sequence with W285A

binding result [1]: binds
binding result [2]: binds
B1: COP1 WD40 domain (COP1^349–675), recombinant from Sf9 cells (domain or fragment)
chain: TFTRYSRLRVIAEIRHGDIFHSANIVSSIEFDRDDELFATAGVSRCIKVFDFSSVVNEPADMQCPIVEMSTRSKLSCLSWNKHEKNHIASSDYEGIVTVWDVTTRQSLMEYEEHEKRAWSVDFSRTEPSMLVSGSDDCKVKVWCTRQEASVINIDMKANICCVKYNPGSSNYIAVGSADHHIHYYDLRNISQPLHVFSGHKKAVSYVKFLSNNELASASTDSTLRLWDVKDNLPVRTFRGHTNEKNFVGLTVNSEYLACGSETNEVYVYHKEITRPVTSHRFGSPDMDDAEEEAGSYFISAVCWKSDSPTMLTANSQGTIKVLVLAA

stoichiometry N [3]: 2
B2: recombinant full-length UVR8^W285A from Sf9 cells, Q9FN03 1-440 (natural protein)
chain: T1 sequence with W285A

B3: UVR8^W285F overexpressed in uvr8-7/Pro35S:UVR8^W285F seedlings (natural protein)
chain: T1 sequence with W285F
stoichiometry N (cross-linking): 2

stoichiometry N [4]: 2
B4: UVR8^W285A overexpressed in uvr8-7/Pro35S:UVR8^W285A seedlings, Q9FN03 1-440 (natural protein)
chain: T1 sequence with W285A
